In PMC6199243 (Scientific Reports, 2018):

Target: T1, a-subunit of recombinant Enterococcus hirae V-ATPase (Enterococcus hirae, UniProt P43439 1-664)
T1 construct: a-subunit of Enterococcus hirae V-ATPase (NtpI); In the map it is represented by a T. thermophilus model (PDB 5GAS) and a homology model of its C-terminal half; also called Eh a-subunit; transmembrane a-subunit; source: E. coli, expressed from pTR19-EhV-ATPase, purified as part of the whole r-EhV-ATPase (Ni-NTA, Superdex 200) in 0.05% DDM
T1 sequence (looked up): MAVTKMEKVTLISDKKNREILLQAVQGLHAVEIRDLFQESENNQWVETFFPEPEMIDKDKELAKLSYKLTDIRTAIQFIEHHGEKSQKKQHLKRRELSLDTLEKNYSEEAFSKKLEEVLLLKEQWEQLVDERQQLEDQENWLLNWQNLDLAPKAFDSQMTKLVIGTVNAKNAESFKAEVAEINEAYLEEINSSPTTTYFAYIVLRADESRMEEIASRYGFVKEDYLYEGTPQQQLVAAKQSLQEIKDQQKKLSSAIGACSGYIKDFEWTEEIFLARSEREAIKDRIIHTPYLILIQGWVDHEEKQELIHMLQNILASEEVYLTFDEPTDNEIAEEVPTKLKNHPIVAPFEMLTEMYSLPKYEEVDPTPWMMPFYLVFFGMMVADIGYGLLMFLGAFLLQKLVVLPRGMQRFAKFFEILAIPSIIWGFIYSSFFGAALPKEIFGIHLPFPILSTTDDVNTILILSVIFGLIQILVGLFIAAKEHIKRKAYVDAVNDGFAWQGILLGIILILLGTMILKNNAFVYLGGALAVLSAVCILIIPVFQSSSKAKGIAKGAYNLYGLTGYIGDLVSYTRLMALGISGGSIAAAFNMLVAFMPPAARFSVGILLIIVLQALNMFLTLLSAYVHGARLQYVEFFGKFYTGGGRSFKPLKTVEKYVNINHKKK
Experiment: cryo-EM structure; Zernike phase plate single-particle cryo-EM of r-EhV-ATPase in 0.05% DDM, 17.3 Å; earlier atomic models and homology models fitted into the map
Details: both partners purified

B1: EG complex (peripheral stalk) of recombinant Enterococcus hirae V-ATPase (complex)
chain 1: MPIDKIITQINETAQLERASFEEMKRKEIDQKFEVKKWQIEADFQKEKASKLEEIERSYRQLRNKQKMQVKQEILNAKQEVLQRLFTEATLQLENEPKEEQLALMKQMIQTLPINGTARLIPGEKSADILTPAVIAEWNEELPFELIREDFTEKAQAGLIIDDAGIQYNFLFSHLIKEIQETMSAEIAKELFD
chain 2: MARILTRIKEAEENNQKKEEQVKAELAQYEQLKNNELIDLNKEFQERLTKLMKEKEKNEEEVTEDEQHKLELILEQFRQKVLEIEKTYLEKEEEEIAKKKNLTNEIIERMKQNNGCH
notes: E-subunit of Enterococcus hirae V-ATPase (NtpE); G-subunit of Enterococcus hirae V-ATPase (NtpF); Two EG peripheral stalks stand in the whole enzyme; The models fitted into the map for EG are of T. thermophilus (PDB 3K5B, 3V6I), not of E. hirae; also called peripheral stalks; source: E. coli, expressed from pTR19-EhV-ATPase, purified as part of the whole r-EhV-ATPase (Ni-NTA, Superdex 200) in …
- binding result: binds
